# B1: PPFIA4 (parent)
# chain: YAGNLHESGVHGALLALDENFDHN
# Variants of: B1
# Test: protein stability index of a GFP-peptide fusion (GPS, HEK-293T) (PSI 1-6); higher = more stable
# Settings: c terminus: a fixed tail appended
# 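Note: lentivirally expressed fusions sorted by FACS into six bins by GFP to DsRed ratio, PSI derived from sequencing read proportions per bin multiplied by bin number.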
row,Variant,protein stability index
1,YAGNCHESGVHGALLALDENFDHN,2.58
2,YAGNMHESGVHGALLALDENFDHN,2.23
3,YAGNKHESGVHGALLALDENFDHN,2.86
4,YAGNDHESGVHGALLALDENFDHN,3.71
5,YAGNNHESGVHGALLALDENFDHN,2.96
6,YAGNGHESGVHGALLALDENFDHN,2.21
7,YAGNIHESGVHGALLALDENFDHN,1.94
8,YAGNLHESGVHGALLALCENFDHN,1.34
9,YAGNLHESGVHGALLALWENFDHN,2
10,YAGNLHESGVHGALLALSENFDHN,1.87
11,YAGNLHESGVHGALLALPENFDHN,2.16
12,YAGNLHESGVHGALLALVENFDHN,2.07
13,YAGNLHESGVHGALLALNENFDHN,2.74
14,YAGNLHESGVHGALLELDENFDHN,4.12
15,YAGNLHESGVHGALLMLDENFDHN,2.43
16,YAGNLHESGVHGALLWLDENFDHN,3.58
17,YAGNLHESGVHGALLNLDENFDHN,3.23
18,YAGNLHESGVHGALLLLDENFDHN,2.36
19,YAGNLHESGVHGALLGLDENFDHN,1.77
20,YAGNLHESGVHGALLQLDENFDHN,3.31
21,YAGNLHESGVHGALLTLDENFDHN,3.34
22,YAGNLHHSGVHGALLALDENFDHN,1.77
23,YAGNLHGSGVHGALLALDENFDHN,2
24,YAGNLHCSGVHGALLALDENFDHN,1.67

row,Variant,protein stability index
1,YAGNLHKSGVHGALLALDENFDHN,1.52
2,YAGNLHQSGVHGALLALDENFDHN,2.13
3,YAGNLHTSGVHGALLALDENFDHN,2.24
4,YAGNLHISGVHGALLALDENFDHN,1.54
5,YAGNLHFSGVHGALLALDENFDHN,2.77
6,YAGNLHESGVHFALLALDENFDHN,2.32
7,YAGNLHESGVHTALLALDENFDHN,3.22
8,YAGNLHESGVHVALLALDENFDHN,1.95
9,YAGNLHESGVHSALLALDENFDHN,3.28
10,YAGNLHESGVHHALLALDENFDHN,2.71
11,YAGNLHESGVHLALLALDENFDHN,2.73
12,YAGNLHESGVHEALLALDENFDHN,3.78
13,YAGNLHESGVHGALLALDENFDHM,1.92
14,YAGNLHESGVHGALLALDENFDHF,2.01
15,YAGNLHESGVHGALLALDENFDHA,2.69
16,YAGNLHESGVHGALLALDENFDHW,2.01
17,YAGNLHESGVHGALLALDENFDHS,2.41
18,YAGNLHESGVHGALLALDENFDHQ,2.69
19,YAGNLHESGVHGALLALDENFDHL,2.28
20,YAGNLHESGVHGALLALDENFDHI,2.27
21,YAGNLHESGVHGALLALDENFDHK,2.02
22,YAGNLHESGVHGALLALDENFDHV,1.95
23,YAGNLHESGVHGALLALDEHFDHN,2.48
24,YAGNLHESGVHGALLALDECFDHN,2.32

row,Variant,protein stability index
1,YAGNLHESGVHGALLALDELFDHN,1.63
2,YAGNLHESGVHGALLALDEWFDHN,2.27
3,YAGNLHESGVHGALLALDEEFDHN,3.07
4,YAGNLHESGVHGALLALDENFWHN,2.41
5,YAGNLHESGVHGALLALDENFTHN,1.87
6,YAGNLHESGVHGALLALDENFAHN,2.56
7,YAGNLHESGVHGALLALDENFLHN,1.46
8,YAGNLHESGVHGALLALDENFMHN,2.3
9,YAGNLHESGVHGALLALDENFFHN,2.01
10,YAGNLHESGVHGALLALDENFKHN,2.37
11,YATNLHESGVHGALLALDENFDHN,2.69
12,YADNLHESGVHGALLALDENFDHN,3.83
13,YAENLHESGVHGALLALDENFDHN,4.67
14,YAKNLHESGVHGALLALDENFDHN,3.42
15,YAWNLHESGVHGALLALDENFDHN,2.56
16,YAMNLHESGVHGALLALDENFDHN,3.55
17,YASNLHESGVHGALLALDENFDHN,2.95
18,YACNLHESGVHGALLALDENFDHN,2.64
19,YAVNLHESGVHGALLALDENFDHN,3.11
20,YAGNLHESGVHGALLALDENFDVN,2.63
21,YAGNLHESGVHGALLALDENFDKN,2.53
22,YAGNLHESGVHGALLALDENFDGN,2.46
23,YAGNLHESGVHGALLALDENFDTN,2.61
24,YAGNLHESGVHGALLALDENFDRN,2.47

row,Variant,protein stability index
1,YAGNLHESGVHGALLALDENFDYN,2.43
2,YAGNLHESGVHGALLALDENFDCN,2.13
3,YAGNLHESGVHGALLALDENFDIN,2.23
4,YAGNLHESGVHGRLLALDENFDHN,2.41
5,YAGNLHESGVHGDLLALDENFDHN,4.32
6,YAGNLHESGVHGILLALDENFDHN,1.86
7,YAGNLHESGVHGVLLALDENFDHN,2.07
8,YAGNLHESGVHGQLLALDENFDHN,3.8
9,YAGNLHESGVHGFLLALDENFDHN,1.73
10,YAGNLHESGVHGALLALDQNFDHN,1.64
11,YAGNLHESGVHGALLALDHNFDHN,1.31
12,YAGNLHESGVHGALLALDANFDHN,2.08
13,YAGNLHESGVHGALLALDLNFDHN,1.24
14,YAGNLHESGVHGALLALDNNFDHN,2.2
15,YAGNLHESGVHGALLALDGNFDHN,2.1
16,YAGNLHESGVHGALLALDYNFDHN,1.61
17,YAGNLHESGVHGALLALDDNFDHN,2.6
18,YAGNLHESGVHGAGLALDENFDHN,3.63
19,YAGNLHESGVHGAKLALDENFDHN,3.15
20,YAGNLHESGVHGAYLALDENFDHN,2.47
21,YAGNLHESGVHGAWLALDENFDHN,1.43
22,YAGNLHESGVHGAQLALDENFDHN,4.02
23,YAGNLHESGVHGADLALDENFDHN,4.59
24,YAGNLHESGVHGAELALDENFDHN,3.83

row,Variant,protein stability index
1,YAGNLHESGVHGAALALDENFDHN,3.27
2,YAGNLHESGVHGAILALDENFDHN,1.97
3,YAGNLHESGVHGARLALDENFDHN,3.31
4,YAGNLFESGVHGALLALDENFDHN,1.99
5,YAGNLRESGVHGALLALDENFDHN,1.92
6,YAGNLKESGVHGALLALDENFDHN,2.24
7,YAGNLDESGVHGALLALDENFDHN,2.72
8,YAGNLQESGVHGALLALDENFDHN,2.19
9,YAGNLCESGVHGALLALDENFDHN,2.92
10,YAGNLGESGVHGALLALDENFDHN,2.82
11,YAGNLAESGVHGALLALDENFDHN,2.78
12,YAGNLLESGVHGALLALDENFDHN,2.01
13,YAGNLHENGVHGALLALDENFDHN,2.33
14,YAGNLHECGVHGALLALDENFDHN,2.39
15,YAGNLHEHGVHGALLALDENFDHN,2.11
16,YAGNLHEWGVHGALLALDENFDHN,1.72
17,YAGNLHEGGVHGALLALDENFDHN,2.12
18,YAGNLHEFGVHGALLALDENFDHN,1.72
19,YAGNLHEAGVHGALLALDENFDHN,2.51
20,YAGNLHETGVHGALLALDENFDHN,3.26
21,YAGNLHEEGVHGALLALDENFDHN,3.28
22,YAGNLHESGTHGALLALDENFDHN,3.09
23,YAGNLHESGKHGALLALDENFDHN,2.97
24,YAGNLHESGMHGALLALDENFDHN,1.79

row,Variant,protein stability index
1,YAGNLHESGLHGALLALDENFDHN,2.35
2,YAGNLHESGAHGALLALDENFDHN,3.11
3,YAGNLHESGSHGALLALDENFDHN,3.09
4,YAGWLHESGVHGALLALDENFDHN,1.67
5,YAGDLHESGVHGALLALDENFDHN,3.55
6,YAGELHESGVHGALLALDENFDHN,3.82
7,YAGVLHESGVHGALLALDENFDHN,2.18
8,YAGALHESGVHGALLALDENFDHN,2.48
9,YAGYLHESGVHGALLALDENFDHN,2.2
10,YAGTLHESGVHGALLALDENFDHN,2.23
11,YAGSLHESGVHGALLALDENFDHN,1.87
12,YAGKLHESGVHGALLALDENFDHN,2.09
13,YAGRLHESGVHGALLALDENFDHN,1.93
14,YAGNLHESGVHGALHALDENFDHN,3.31
15,YAGNLHESGVHGALTALDENFDHN,3.78
16,YAGNLHESGVHGALVALDENFDHN,3.29
17,YAGNLHESGVHGALDALDENFDHN,4.06
18,YAGNLHESGVHGALPALDENFDHN,4.09
19,YAGNLHESGVHGALQALDENFDHN,3.52
20,YAGNLHESGVHGALYALDENFDHN,2.31
21,YAGNLHESGVHGALFALDENFDHN,2.2
22,YAGNLHESGVHGALNALDENFDHN,3.89
23,YAGNLHESGVHGALLAYDENFDHN,1.76
24,YAGNLHESGVHGALLAQDENFDHN,3.37

row,Variant,protein stability index
1,YAGNLHESGVHGALLADDENFDHN,4.18
2,YAGNLHESGVHGALLATDENFDHN,3.04
3,YAGNLHESGVHGALLACDENFDHN,3.21
4,YAGNLHESGVHGALLAEDENFDHN,4.52
5,YAGNLHESGVHGALLAIDENFDHN,2.02
6,YAGNLHESGVHGALLAPDENFDHN,3.35
7,YTGNLHESGVHGALLALDENFDHN,3.09
8,YFGNLHESGVHGALLALDENFDHN,3.84
9,YWGNLHESGVHGALLALDENFDHN,3.26
10,YEGNLHESGVHGALLALDENFDHN,4.19
11,YCGNLHESGVHGALLALDENFDHN,2.38
12,YDGNLHESGVHGALLALDENFDHN,4.38
13,YKGNLHESGVHGALLALDENFDHN,4.68
14,YGGNLHESGVHGALLALDENFDHN,3.49
15,YSGNLHESGVHGALLALDENFDHN,3.31
16,YLGNLHESGVHGALLALDENFDHN,3.65
17,YNGNLHESGVHGALLALDENFDHN,4.32
18,YAGNLHESKVHGALLALDENFDHN,2.68
19,YAGNLHESAVHGALLALDENFDHN,2.46
20,YAGNLHESFVHGALLALDENFDHN,1.83
21,VAGNLHESGVHGALLALDENFDHN,4.85
22,NAGNLHESGVHGALLALDENFDHN,4.81
23,FAGNLHESGVHGALLALDENFDHN,2.04
24,IAGNLHESGVHGALLALDENFDHN,3.86

row,Variant,protein stability index
1,EAGNLHESGVHGALLALDENFDHN,5.05
2,HAGNLHESGVHGALLALDENFDHN,4.95
3,PAGNLHESGVHGALLALDENFDHN,5.39
4,YAGNLHESGVGGALLALDENFDHN,3.35
5,YAGNLHESGVDGALLALDENFDHN,4.25
6,YAGNLHESGVTGALLALDENFDHN,2.59
7,YAGNLHESGVRGALLALDENFDHN,2.46
8,YAGNLHESGVQGALLALDENFDHN,3.59
9,YAGNLHESGVYGALLALDENFDHN,2.35
10,YAGNLHESGVPGALLALDENFDHN,2.57
11,YAGNLHESGVVGALLALDENFDHN,1.88
12,YAGNLHESGVHGALLALDENCDHN,3.23
13,YAGNLHESGVHGALLALDENYDHN,2.6
14,YAGNLHESGVHGALLALDENEDHN,3.93
15,YAGNLHESGVHGALLALDENWDHN,2.69
16,YAGNLHESGVHGALLALDENLDHN,3.51
17,YAGNLHESGVHGALLALDENPDHN,3.45
18,YAGNLHESGVHGALLALDENKDHN,2.89
19,YAGNLHESGVHGALLALDENRDHN,2.53
20,YAGNLHESGVHGALLALDENVDHN,2.63

# Reference: the supplement of paper PMC10567573
